In patent US20240392271 one finds activity (PTBP1/total protein relative to NT) data, which are given here for two sequences.

The data set relates to dXR (PTBP1 experiment; KRAB not stated in the excerpt) (synthetic construct). The data set can be described thus: cell_activity. Conditions: mouse astrocytes, day 11.

“ACAGCAUCGUCCCAGACAUA / ACAGCATCGTCCCAGACATA / TATGTCTGGGACGATGCTGT [gRNA spacer 28.16 ; PTBP1 target 28.16]” came in with an activity (PTBP1/total protein relative to NT) of 0.464.

“CAGCGGGGAUCCGACGAGCU / CAGCGGGGATCCGACGAGCT / AGCTCGTCGGATCCCCGCTG [gRNA spacer 28.10 ; PTBP1 target 28.10]”: where the note is “no clear repression”, the activity (PTBP1/total protein relative to NT) amounted to 0.945.
